The source of these data is the supplement of paper PMC10567573.

The chains are these.
B1: MAGEA6 (parent)
chain: KISGGPRISYPLLHEWALREGEE
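Note: lentivirally expressed fusions sorted by FACS into six bins by GFP to DsRed ratio, PSI derived from sequencing read proportions per bin multiplied by bin number.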

The data set covers variants of B1. Description: protein stability index of a GFP-peptide fusion (GPS, HEK-293T) (PSI 1-6); higher = more stable. Particulars: c terminus: native.
As for KISGGPRISYPLLHEWALREGEF, the protein stability index is 2.43.

As to KISGGPRISYPLLHEWALREGEG, the protein stability index was 2.41.

For KISGGPRISYPLLHEWALREGEQ, the protein stability index was 2.48.

With KISGGPRISYPLLHEWALREGEC, the protein stability index worked out at 1.64.

Regarding KISGGPRISYPLLHEWALREGEK, the protein stability index worked out at 2.88.

With KISGGPRISYPLLHEWALREGEA, the protein stability index turned out to be 1.23.

With KISGGPRISYPLLHEWALREGER, the protein stability index was found to be 1.88.

On to KISGGPRISYPLLHEWALREGED, for which the protein stability index was found to be 3.38.

With KISGGPRISYPLLHEWALREGET, the protein stability index turned out to be 2.25.

Turning to KISGGPRISYPLLHEWALREGEY, the protein stability index is 2.56.

With KISGGPRISYPLLHEWALREGEL, the protein stability index was found to be 2.27.

For the variant KISGGPRISYPLLHEWALREGEH, the protein stability index was 2.73.

Regarding KISGGPRISYPLLHEWALREGEI, the protein stability index turned out to be 1.74.

With KISGGPRILYPLLHEWALREGEE, the protein stability index turned out to be 3.34.

As for KISGGPRIFYPLLHEWALREGEE, the protein stability index stood at 1.61.

KISGGPRICYPLLHEWALREGEE: the protein stability index came to 3.18.

As for KISGGSRISYPLLHEWALREGEE, the protein stability index was found to be 2.73.

For the variant KISGGKRISYPLLHEWALREGEE, the protein stability index amounted to 1.55.

Turning to KISGGGRISYPLLHEWALREGEE, the protein stability index was 1.91.

KISGGCRISYPLLHEWALREGEE: the protein stability index stood at 2.05.

Consider KISGGNRISYPLLHEWALREGEE, for which the protein stability index amounted to 3.51.

KISGGARISYPLLHEWALREGEE: the protein stability index was 2.25.

With KISGGRRISYPLLHEWALREGEE, the protein stability index was 3.64.

Turning to KISGGTRISYPLLHEWALREGEE, the protein stability index is 2.8.

KISGGPRISYPLLHEWALREGGE: the protein stability index was determined as 2.18.

For KISGGPRISYPLLHEWALREGWE, the protein stability index came to 1.87.

Turning to KISGGPRISYPLLHEWALREGME, the protein stability index amounted to 2.19.

For the variant KISGGPRISYPLLHEWALREGPE, the protein stability index came out at 1.85.

Regarding KISGGPRISYPLLHEWALREGDE, the protein stability index came to 3.35.

Turning to KISGGPRISYPLLHEWALREGYE, the protein stability index stood at 2.29.

Consider KISGGPRISYPLLHEWALREGCE, for which the protein stability index worked out at 1.88.

Consider KISGGPRISYPLLHEWALREGLE, for which the protein stability index worked out at 2.44.

With KISGGPRISYPLLHEWALREGNE, the protein stability index was found to be 2.53.

KISGGPRISYPLLHEWALREGHE: the protein stability index stood at 2.49.

Take KISGGPRISYPLLHEWALREGSE: the protein stability index was 2.12.

Turning to KISGGPRISYPLLHEWALREGTE, the protein stability index was 2.36.

Turning to KISGGPRISYPLLHEWALREGAE, the protein stability index is 2.4.

Consider KISGGPRISYPLLHEWALREGQE, for which the protein stability index worked out at 3.01.

As for KISGGPRISYPLLHEWDLREGEE, the protein stability index came to 1.28.

For the variant KISGGPRISYPLLHEWNLREGEE, the protein stability index was 3.69.

KISGGPRISYPLLHEWCLREGEE: the protein stability index came to 3.28.

On to KISGGPRISYPLLHEWPLREGEE, for which the protein stability index is 1.02.

Take KISGCPRISYPLLHEWALREGEE: the protein stability index turned out to be 3.47.

Take KISGDPRISYPLLHEWALREGEE: the protein stability index turned out to be 2.6.

Regarding KISGHPRISYPLLHEWALREGEE, the protein stability index was 1.73.

As for KISGTPRISYPLLHEWALREGEE, the protein stability index turned out to be 3.04.

As to KISGYPRISYPLLHEWALREGEE, the protein stability index turned out to be 3.51.

On to KISGFPRISYPLLHEWALREGEE, for which the protein stability index stood at 2.74.

As to KISGKPRISYPLLHEWALREGEE, the protein stability index worked out at 2.48.

On to KISGGPRISYPHLHEWALREGEE, for which the protein stability index was 2.3.

On to KISGGPRISYPALHEWALREGEE, for which the protein stability index turned out to be 4.05.

Consider KISGGPRISYPGLHEWALREGEE, for which the protein stability index stood at 5.59.

For the variant KISGGPRISYPFLHEWALREGEE, the protein stability index was 3.78.

In the case of KISGGPRISYPTLHEWALREGEE, the protein stability index came out at 2.23.

As to KISGGPRISYPLLHIWALREGEE, the protein stability index worked out at 2.14.

As to KISGGPRISYPLLHNWALREGEE, the protein stability index worked out at 2.31.

Take KISGGPRISYPLLHKWALREGEE: the protein stability index is 3.16.

Turning to KISGGPRISYPLLHEWALRLGEE, the protein stability index was 3.74.

On to KISGGPRISYPLLHEWALRKGEE, for which the protein stability index is 3.74.

As to KISGGPRISYPLLHEWALRWGEE, the protein stability index came to 2.32.

For the variant KISGGPRISYPLLHEWALRVGEE, the protein stability index was 3.06.

Take KISGGPRISYPLLHEWALRPGEE: the protein stability index was determined as 2.36.

For the variant KISGGPRISYPLLHEWALRSGEE, the protein stability index came to 4.57.

In the case of KISGGPRISYPLLHEFALREGEE, the protein stability index was 2.74.

On to KISGGPRISYPLLHEYALREGEE, for which the protein stability index came to 4.84.

For KISGGPRISYPLLHEPALREGEE, the protein stability index turned out to be 2.49.

As for KISGGPRISYPLLHENALREGEE, the protein stability index is 2.54.

As for KISGGPRISQPLLHEWALREGEE, the protein stability index stood at 3.78.

For KISGGPRISKPLLHEWALREGEE, the protein stability index came to 3.2.

Regarding KISGGPRISLPLLHEWALREGEE, the protein stability index is 3.04.

With KISGGPRISHPLLHEWALREGEE, the protein stability index was 2.83.

Turning to KISGGPGISYPLLHEWALREGEE, the protein stability index came to 2.84.

As to KISGGPPISYPLLHEWALREGEE, the protein stability index worked out at 2.65.

Consider KISGGPIISYPLLHEWALREGEE, for which the protein stability index came to 4.03.

As for KISGGPLISYPLLHEWALREGEE, the protein stability index was 1.92.

In the case of KITGGPRISYPLLHEWALREGEE, the protein stability index was 1.81.

On to KIMGGPRISYPLLHEWALREGEE, for which the protein stability index was determined as 2.63.

As for KIWGGPRISYPLLHEWALREGEE, the protein stability index was 2.02.

Regarding KISGGPRISYPLLHEWALNEGEE, the protein stability index was 1.43.

For the variant KISGGPRISYPLLHEWALLEGEE, the protein stability index worked out at 3.32.

Regarding KISGGPRISYPLLHEWALEEGEE, the protein stability index came to 2.29.

For the variant KISGGPRISYPLLHEWALHEGEE, the protein stability index was 3.42.

For KISGGPRISYPLLHEWALFEGEE, the protein stability index stood at 2.64.

For the variant KISGGPRISYPLLHEWALAEGEE, the protein stability index was 2.07.

Turning to KISGGPRISYSLLHEWALREGEE, the protein stability index was 2.66.

Take KISGGPRISYLLLHEWALREGEE: the protein stability index amounted to 2.3.

KISGGPRISYILLHEWALREGEE: the protein stability index came to 2.41.

Consider KISGGPRISYRLLHEWALREGEE, for which the protein stability index was found to be 3.25.

In the case of KISGGPRISYVLLHEWALREGEE, the protein stability index is 2.1.

Turning to KISGGPRISYELLHEWALREGEE, the protein stability index amounted to 3.27.

On to KISGGPRISYHLLHEWALREGEE, for which the protein stability index is 2.24.

KISGGPRISYMLLHEWALREGEE: the protein stability index amounted to 2.61.

For the variant KISGGPRISYQLLHEWALREGEE, the protein stability index worked out at 2.63.

With DISGGPRISYPLLHEWALREGEE, the protein stability index came out at 3.3.

With QISGGPRISYPLLHEWALREGEE, the protein stability index came to 2.35.

Consider NISGGPRISYPLLHEWALREGEE, for which the protein stability index was determined as 2.62.
